Test results as given in PMC6698656, “Structural insights into dimethylation of 12S rRNA by TFB1M: indispensable role in translation of mitochondrial genes and mitochondrial function”.

How the values were obtained:
Conditions in all cases: protein: recombinant; tags: His6-MBP N-terminal, removed by TEV; label: 5'-FAM; hairpin
hsTFB1M E246A = hsTFB1M E246A (Homo sapiens, UniProt Q8WVM0 28-346, E246A); assay: EMSA; affinity not impaired; EMSA: 50 mM Tris-HCl pH 8.0, 25 mM NaCl, 100 nM RNA, TFB1M 0-2 mM as printed (legend suggests uM), 37 C 30 min; 6% native PAGE, 0.5x TBE
hsTFB1M E246A, sequence (Q8WVM0 28-346 E246A): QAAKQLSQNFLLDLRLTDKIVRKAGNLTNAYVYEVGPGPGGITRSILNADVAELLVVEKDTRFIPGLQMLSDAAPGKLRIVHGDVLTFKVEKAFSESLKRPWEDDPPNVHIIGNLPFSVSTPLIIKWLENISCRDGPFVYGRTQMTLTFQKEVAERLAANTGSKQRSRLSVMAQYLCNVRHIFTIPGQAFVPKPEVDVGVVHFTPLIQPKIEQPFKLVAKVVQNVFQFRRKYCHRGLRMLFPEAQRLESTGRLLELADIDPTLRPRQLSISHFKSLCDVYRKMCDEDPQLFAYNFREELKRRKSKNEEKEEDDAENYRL

hsTFB1M I152A = hsTFB1M I152A (Homo sapiens, UniProt Q8WVM0 28-346, I152A); assay: as above
hsTFB1M I152A, sequence (Q8WVM0 28-346 I152A): as the sequence (Q8WVM0 28-346 E246A) above, with I125A, A219E counted along it

hsTFB1M R195A = hsTFB1M R195A (Homo sapiens, UniProt Q8WVM0 28-346, R195A); assay: as above
hsTFB1M R195A, sequence (Q8WVM0 28-346 R195A): as the sequence (Q8WVM0 28-346 E246A) above, with R168A, A219E counted along it

hsTFB1M Q177A = hsTFB1M Q177A (Homo sapiens, UniProt Q8WVM0 28-346, Q177A); assay: EMSA; affinity improved to some degree; EMSA: 50 mM Tris-HCl pH 8.0, 25 mM NaCl, 100 nM RNA, TFB1M 0-2 mM as printed (legend suggests uM), 37 C 30 min; 6% native PAGE, 0.5x TBE
hsTFB1M Q177A, sequence (Q8WVM0 28-346 Q177A): as the sequence (Q8WVM0 28-346 E246A) above, with Q150A, A219E counted along it

hsTFB1M E179A = hsTFB1M E179A (Homo sapiens, UniProt Q8WVM0 28-346, E179A); assay: as above
hsTFB1M E179A, sequence (Q8WVM0 28-346 E179A): as the sequence (Q8WVM0 28-346 E246A) above, with E152A, A219E counted along it

hsTFB1M F144A = hsTFB1M F144A (Homo sapiens, UniProt Q8WVM0 28-346, F144A); assay: EMSA; affinity not significantly changed vs WT; EMSA: 50 mM Tris-HCl pH 8.0, 25 mM NaCl, 100 nM RNA, TFB1M 0-2 mM as printed (legend suggests uM), 37 C 30 min; 6% native PAGE, 0.5x TBE
hsTFB1M F144A, sequence (Q8WVM0 28-346 F144A): as the sequence (Q8WVM0 28-346 E246A) above, with F117A, A219E counted along it

hsTFB1M N36A = hsTFB1M N36A (Homo sapiens, UniProt Q8WVM0 28-346, N36A); assay: as above
hsTFB1M N36A, sequence (Q8WVM0 28-346 N36A): as the sequence (Q8WVM0 28-346 E246A) above, with N9A, A219E counted along it

hsTFB1M Q35A = hsTFB1M Q35A (Homo sapiens, UniProt Q8WVM0 28-346, Q35A); assay: as above
hsTFB1M Q35A, sequence (Q8WVM0 28-346 Q35A): as the sequence (Q8WVM0 28-346 E246A) above, with Q8A, A219E counted along it

hsTFB1M V225A = hsTFB1M V225A (Homo sapiens, UniProt Q8WVM0 28-346, V225A); assay: as above
hsTFB1M V225A, sequence (Q8WVM0 28-346 V225A): as the sequence (Q8WVM0 28-346 E246A) above, with V198A, A219E counted along it

Measured: binding result

GGUAAGUGUACUGGAAAGUGCACUUGCC (structured_RNA) [5'-FAM h45 RNA (WT)]
binds: all assays above
